Results taken from US20140155325A1 (Janssen / Centocor, published 2014).
Positions count from the first letter of the chain named. Names and notes keep the numbering of the source.

Columns and labels:
[1] = target: recombinant human c-Met Fc chimera (human) (UniProt P08581); assay: SPR (ProteOn), c-Met-Fc captured by anti-human Fc
[2] = target: recombinant human c-Met Fc chimera (human) (UniProt P08581); assay: HGF competition (biotinylated HGF on coated c-Met-Fc)
[3] = target: human EGFR (epidermal growth factor receptor) on cells (human) (UniProt P00533)
[4] = target: human EGFR (epidermal growth factor receptor) on cells (human) (UniProt P00533); remark: listed apart in the source
[5] = target: human EGFR (epidermal growth factor receptor) on cells (human) (UniProt P00533); remark: listed apart in the source
[6] = target: human EGFR (epidermal growth factor receptor) on cells (human) (UniProt P00533); assay: cell-based or functional assay
[7] = target: human c-Met (hepatocyte growth factor receptor) on cells (human, UniProt P08581 25-1390); assay: cell-based or functional assay
[8] = target: recombinant human c-Met Fc chimera (human) (UniProt P08581); assay: SPR, serine scan in the context of ECB15
[9] = target: recombinant human c-Met Fc chimera (human) (UniProt P08581); assay: SPR (ProteOn), protocol of Example 3
[10] = target: T1, human EGFR (epidermal growth factor receptor) on cells (human, UniProt P00533 25-1210); assay: A431 cell binding, anti-His-Alexa488
T1 construct: Endogenous EGFR of human tumor cell lines; also called HER-1; Erb-B1

[11] = target: T1, human EGFR (epidermal growth factor …); assay: cell-based or functional assay
[12] = target: T1, human EGFR (epidermal growth factor …); assay: cell-based or functional assay; remark: listed apart in the source
[13] = target: T1, human EGFR (epidermal growth factor …); assay: cell-based or functional assay; remark: listed apart in the source

B1: P114AR7P93-G8 (designed binder, not shown: small tags and cut ends)
chain: LPAPKNLVVSRVTEDSARLSWTAPDAAFDSFWIRYFEFLGSGEAIVLTVPGSERSYDLTDLKPGTEYGVTINGVKGGRVSTPLSAIFTT
[1]
  Kd: 6.9 nM
[2]
  IC50: 1 nM

B2: ECB5 (designed binder, not shown: small tags and cut ends)
chain: MLPAPKNLVVSEVTEDSARLSWADPHGFYDSFLIQYQESEKVGEAIVLTVPGSERSYDLTGLKPGTEYTVSIYGVHNVYKDTNMRGLPLSAIFTTGGGGSGGGGSGGGGSGGGGSMLPAPKNLVVSRVTEDSARLSWTAPDAAFDSFWIRYFEFLGSGEAIVLTVPGSERSYDLTGLKPGTEYVVNIMGVKGGKISPPLSAIFTT
[3]
  IC50, inhibition of EGF-stimulated EGFR phosphorylation (relative pEGFR, RCLU) in H292 cells, +50 ng/mL EGF [+50ng/mL EGF), IC50 table]: 76.6 nM
[4]
  IC50, inhibition of EGF-stimulated EGFR phosphorylation (relative pEGFR, RCLU) in H441 cells, +10 ng/mL EGF [+10ng/mL EGF), IC50 table]: 2.3 nM
[5]
  IC50, inhibition of EGF-stimulated EGFR phosphorylation (relative pEGFR, RCLU) in H596 cells, +2.5 ng/mL EGF [+2.5ng/mL EGF), IC50 table]: 83.2 nM
[6]
  fold decrease of the IC50 for inhibition of EGFR phosphorylation in NCI-H441 cells against monospecific P53A1R5-17v2: 30 fold

B3: Bispecific Centyrin (83-H9) (designed binder)
chain: B2 chain with A23D, H26W, G27A, D30E, N186Q, M188I, K194H, P197L
[7]
  IC50, inhibition of HGF-stimulated c-Met phosphorylation (relative pc-Met, RCLU) in H596 cells, +5 ng/mL HGF [+5ng/mL HGF), IC50 table]: 0.0789 nM

B4: A3 K78S (designed binder)
chain: LPAPKNLVVSEVTEDSARLSWDDPWAFYESFLIQYQESEKVGEAIVLTVPGSERSYDLTGLKPGTEYTVSIYGVHNVYKDTNMRGLPLSAIFTTAPAPAPAPAPLPAPKNLVVSRVTEDSARLSWTAPDAAFDSFWIRYFEFLGSGEAIVLTVPGSERSYDLTGLKPGTEYVVNIMGVKGGSISPPLSAIFTT
[8]
  Fold Change of KD against parent: 0.75 fold
  Kd: 0.3 nM
  koff: 0.00015 s⁻¹
  kon: 440000 M⁻¹ s⁻¹

B5: A3 F38S (designed binder)
chain: B4 chain with F142S, S182K
[8]
  Fold Change of KD against parent: 1790 fold
  Kd: 717 nM
  koff: 0.0323 s⁻¹
  kon: 45100 M⁻¹ s⁻¹

B6: A3 P81S (designed binder)
chain: B4 chain with S182K, P185S
[8]
  Fold Change of KD against parent: 4.25 fold
  Kd: 1.7 nM
  koff: 0.000536 s⁻¹
  kon: 321000 M⁻¹ s⁻¹

B7: A3 V68S (designed binder)
chain: B4 chain with V172S, S182K
[8]
  Fold Change of KD against parent: 9 fold
  Kd: 3.6 nM
  koff: 0.0012 s⁻¹
  kon: 329000 M⁻¹ s⁻¹

B8: A3 N70S (designed binder)
chain: B4 chain with N174S, S182K
[8]
  Fold Change of KD against parent: 14.8 fold
  Kd: 5.9 nM
  koff: 0.00249 s⁻¹
  kon: 425000 M⁻¹ s⁻¹

B9: A3 W32S (designed binder)
chain: B4 chain with W136S, S182K
[8]
  Fold Change of KD against parent: 74.5 fold
  Kd: 29.8 nM
  koff: 0.0086 s⁻¹
  kon: 289000 M⁻¹ s⁻¹

B10: A3 F36S (designed binder)
chain: B4 chain with F140S, S182K
[8]
  Fold Change of KD against parent: 68 fold
  Kd: 27.2 nM
  koff: 0.00512 s⁻¹
  kon: 188000 M⁻¹ s⁻¹

B11: A3 L39S (designed binder)
chain: B4 chain with L143S, S182K
[8]
  Fold Change of KD against parent: 6.75 fold
  Kd: 2.7 nM
  koff: 0.00127 s⁻¹
  kon: 475000 M⁻¹ s⁻¹

B12: A3 G40S (designed binder)
chain: B4 chain with G144S, S182K
[8]
  Fold Change of KD against parent: 4.25 fold
  Kd: 1.7 nM
  koff: 0.00032 s⁻¹
  kon: 185000 M⁻¹ s⁻¹

B13: ECB109 (designed binder, not shown: small tags and cut ends)
chain: MLPAPKNLVVSEVTEDSARLSWDDPHAFYESFLIQYQESEKVGEAIVLTVPGSERSYDLTGLKPGTEYTVSIYGVHNVYKDTNIRGLPLSAIFTTAPAPAPAPAPLPAPKNLVVSRVTEDSARLSWTAPDAAFDSFWIRYFEFLGSGEAIVLTVPGSERSYDLTGLKPGTEYVVNILSVKGGSISPPLSAIFTT
[9]
  Kd: 2.1 nM

B14: ECB15 (designed binder, not shown: small tags and cut ends)
chain: B13 chain with H26W, I84M, L177M, S178G, S183K
[9]
  Kd: 2.6 nM

B15: ECB107 (designed binder, not shown: small tags and cut ends)
chain: B13 chain with L144V, S178G
[9]
  Kd: 9 nM

B16: ECB95 (designed binder, not shown: small tags and cut ends)
chain: B13 chain with H26W, L144V, S178G
[9]
  Kd: 6.2 nM

B17: ECB106 (designed binder, not shown: small tags and cut ends)
chain: B13 chain with S178G, S183K
[9]
  Kd: 5.1 nM

B18: ECB94 (designed binder, not shown: small tags and cut ends)
chain: B13 chain with H26W, S178G, S183K
[9]
  Kd: 4.3 nM

B19: ECB96 (designed binder, not shown: small tags and cut ends)
chain: B13 chain with H26W, L144V, G145S, S146K, E148D, S178G
[9]
  Kd: 22.1 nM

B20: ECB108 (designed binder, not shown: small tags and cut ends)
chain: B13 chain with L144V, G145S, S146K, E148D, S178G
[9]
  Kd: 25.5 nM

B21: P114AR5P74-A5 (designed binder, not shown: small tags and cut ends)
chain: LPAPKNLVVSRVTEDSARLSWTAPDAAFDSFWIRYDEVVVGGEAIVLTVPGSERSYDLTGLKPGTEYYVNILGVKGGSISVPLSAIFTT
[1]
  Kd: 10.1 nM
[2]
  IC50: 5.2 nM

B22: P114AR7P92-G8 (designed binder, not shown: small tags and cut ends)
chain: B1 chain with W32V, D60G, G68V, T70Q, N72L, R78Y, V79I, T81I
[1]
  Kd: 1 nM
[2]
  IC50: 1.6 nM

B23: P114AR7P92-F6 (designed binder, not shown: small tags and cut ends)
chain: B1 chain with D60G, G68V, T70N, N72L, R78G, V79L, T81V
[1]
  Kd: 3.1 nM
[2]
  IC50: 2.2 nM

B24: P114AR7P92-H5 (designed binder, not shown: small tags and cut ends)
chain: B1 chain with F36L, G40L, S41G, D60G, G68V, T70Q, N72M, R78T, T81P
[1]
  Kd: 11.6 nM

B25: P114AR5P75-E9 (designed binder, not shown: small tags and cut ends)
chain: B1 chain with W32F, F36D, G40R, D60G, G68W, N72L, R78L
[1]
  Kd: 45.8 nM
[2]
  IC50: 51.9 nM

B26: P114AR7P94-A3 (designed binder, not shown: small tags and cut ends)
chain: B1 chain with D60G, G68V, T70N, N72M, R78K, V79I, T81P
[1]
  Kd: 0.4 nM
[2]
  IC50: 0.2 nM

B27: P114AR7P95-F10 (designed binder, not shown: small tags and cut ends)
chain: B21 chain with D36F, V38F, V39T, V40T, G41A, Y68V, L72M, V81P
[1]
  Kd: 4.2 nM
[2]
  IC50: 1.4 nM

B28: P114AR7P95-D4 (designed binder, not shown: small tags and cut ends)
chain: B1 chain with D60G, G68V, T70Q, N72L, R78Y, V79I, T81I
[1]
  Kd: 0.4 nM

B29: P114AR7P94-E5 (designed binder, not shown: small tags and cut ends)
chain: B1 chain with D60G, G68A, T70N, N72M, T81V
[1]
  Kd: 4.2 nM
[2]
  IC50: 0.7 nM

B30: P114AR7P95-G7 (designed binder, not shown: small tags and cut ends)
chain: B21 chain with D36F, V38L, V39L, V40S, G41T, Y68V, L72M, V81P
[1]
  Kd: 20 nM

B31: P114AR7P95-H8 (designed binder, not shown: small tags and cut ends)
chain: B21 chain with D36F, V38F, V40S, G41K, Y68V, L72M, V81P
[1]
  Kd: 3.7 nM

B32: P114AR7P93-H9 (designed binder, not shown: small tags and cut ends)
chain: B1 chain with D60G, G68V, T70Q, N72I, R78H, V79I, T81L
[1]
  Kd: 3.3 nM
[7]
  IC50, inhibition of HGF-stimulated c-Met phosphorylation (relative pc-Met, RCLU) in H596 cells, +5 ng/mL HGF [+5ng/mL HGF), IC50 table]: 80.8 nM
[2]
  IC50: 2.9 nM

B33: P54CR4-31 (designed binder)
chain: LPAPKNLVVSEVTEDSLRLSWTAPDAAFDSFLIQYQESEKVGEAINLTVPGSERSYDLTGLKPGTEYTVSIYGVLGSYVFEHDVMLPLSAEFTT
notes: not shown: C-terminal poly-histidine tag
[10]
  EC50: > 20000 nM

B34: P53A1R5-17 (designed binder, not shown: small tags and cut ends)
chain: LPAPKNLVVSEVTEDSLRLSWADPHGFYDSFLIQYQESEKVGEAINLTVPGSERSYDLTGLKPGTEYTVSIYGVHNVYKDTNMRGLPLSAEFTT
[11]
  IC50, inhibition of EGF-stimulated EGFR phosphorylation (relative pEGFR, RCLU) in H292 cells, +50 ng/mL EGF [+50ng/mL EGF), IC50 table]: 151 nM
[12]
  IC50, inhibition of EGF-stimulated EGFR phosphorylation (relative pEGFR, RCLU) in H441 cells, +10 ng/mL EGF [+10ng/mL EGF), IC50 table]: 70.2 nM
[13]
  IC50, inhibition of EGF-stimulated EGFR phosphorylation (relative pEGFR, RCLU) in H596 cells, +2.5 ng/mL EGF [+2.5ng/mL EGF), IC50 table]: 35.4 nM
